In patent US20260242735A1 (UNIVERSIT T BASEL, published 2026):

B1: Refmab #5 (antibody, V domains shown)
VH: QVQLVQSGAEVKKPGASVKVSCKASGYTFTNYDINWVRQAPGQGLEWIGWIYPGDGSTKYNEKFKAKATLTADTSTSTAYMELRSLRSDDTAVYYCASGYEDAMDYWGQGTTVTVSS
VL: DIQMTQSPSSLSASVGDRVTINCKASQDINSYLSWFQQKPGKAPKTLIYRANRLVDGVPSRFSGSGSGQDYTLTISSLQPEDFATYYCLQYDEFPLTFGGGTKVEIK
notes: Full-length format is human IgG1 Fc silent (PG-LALA); also made as Fab; The alanine scan used IgG or Fab
B2: Refmab #5 (antibody, human IgG1, V domains shown)
VH: B1 VH
VL: B1 VL
B3: Refmab #4 (antibody, human IgG1, V domains shown)
VH: QVQLVQSGAEVKKPGESVKVSCKASGYTFTNYGMNWVKQAPGQGLEWMGWINTYTGEPTYADKFQGRVTMTTDTSTSTAYMEIRNLGGDDTAVYYCARWSWSDGYYVYFDYWGQGTSVTVSS
VL: DIVMTQSPDSLTVSLGERTTINCKSSQSVLDSSTNKNSLAWYQQKPGQPPKLLLSWASTRESGIPDRFSGSGSGTDFTLTIDSPQPEDSATYYCQQSAHFPITFGQGTRLEIK
B4: Refmab #3 (antibody, human IgG1, V domains shown)
VH: QVQLVQSGAEVKKPGSSVKVSCKASGYTFTDYNMHWVRQAPGQGLEWIGYIYPYNGGTGYNQKFKSKATITADESTNTAYMELSSLRSEDTAVYYCARGRPAMDYWGQGTLVTVSS
VL: DIQMTQSPSSLSASVGDRVTITCRASESVDNYGISFMNWFQQKPGKAPKLLIYAASNQGSGVPSRFSGSGSGTDFTLTISSLQPDDFATYYCQQSKEVPWTFGQGTKVEIK
B5: Refmab #6 (antibody, V domains shown)
VH: QVQLQQPGAEVVKPGASVKMSCKASGYTFTSYYIHWIKQTPGQGLEWVGVIYPGNDDISYNQKFQGKATLTADKSSTTAYMQLSSLTSEDSAVYYCAREVRLRYFDVWGQGTTVTVSS
VL: EIVLTQSPGSLAVSPGERVTMSCKSSQSVFFSSSQKNYLAWYQQIPGQSPRLLIYWASTRESGVPDRFTGSGSGTDFTLTISSVQPEDLAIYYCHQYLSSRTFGQGTKLEIK
notes: as for B1
B6: Refmab #6 (antibody, human IgG1, V domains shown)
VH: B5 VH
VL: B5 VL

Assays:
human CD33 Q236A = human CD33 Q236A (human, UniProt P20138 18-364); assay: alanine scan, flow cytometry;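 further: HEK293-T cells transiently expressing single-residue alanine mutants of CD33 (alanine swapped to serine), antibody binding read by fluorescence in duplicate, background-subtracted, expressed relative to wild-type CD33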
human CD33 T239A = human CD33 T239A (human, UniProt P20138 18-364); assay: alanine scan, flow cytometry;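 further: HEK293-T cells transiently expressing single-residue alanine mutants of CD33 (alanine swapped to serine), antibody binding read by fluorescence in duplicate, background-subtracted, expressed relative to wild-type CD33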
human CD33 K250A = human CD33 K250A (human, UniProt P20138 18-364); assay: alanine scan, flow cytometry;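 further: HEK293-T cells transiently expressing single-residue alanine mutants of CD33 (alanine swapped to serine), antibody binding read by fluorescence in duplicate, background-subtracted, expressed relative to wild-type CD33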
human CD33 A255S = human CD33 A255S (human, UniProt P20138 18-364); assay: alanine scan, flow cytometry;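 further: HEK293-T cells transiently expressing single-residue alanine mutants of CD33 (alanine swapped to serine), antibody binding read by fluorescence in duplicate, background-subtracted, expressed relative to wild-type CD33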
human CD33 G264A = human CD33 G264A (human, UniProt P20138 18-364); assay: alanine scan, flow cytometry
human CD33 T223A = human CD33 T223A (human, UniProt P20138 18-364); assay: alanine scan, flow cytometry
human CD33 L210A = human CD33 L210A (human, UniProt P20138 18-364); assay: alanine scan, flow cytometry
human CD33 I262A = human CD33 I262A (human, UniProt P20138 18-364); assay: alanine scan, flow cytometry
human CD33 Y233A = human CD33 Y233A (human, UniProt P20138 18-364); assay: alanine scan, flow cytometry
human CD33 P235A = human CD33 P235A (human, UniProt P20138 18-364); assay: alanine scan, flow cytometry
human CD33 N209A = human CD33 N209A (human, UniProt P20138 18-364); assay: alanine scan, flow cytometry
human CD33 I227A = human CD33 I227A (human, UniProt P20138 18-364); assay: alanine scan, flow cytometry
human CD33 T232A = human CD33 T232A (human, UniProt P20138 18-364); assay: alanine scan, flow cytometry
human CD33 Q228A = human CD33 Q228A (human, UniProt P20138 18-364); assay: alanine scan, flow cytometry
human CD33 A217S = human CD33 A217S (human, UniProt P20138 18-364); assay: alanine scan, flow cytometry
human CD33 V196A = human CD33 V196A (human, UniProt P20138 18-364); assay: alanine scan, flow cytometry
human CD33 T222A = human CD33 T222A (human, UniProt P20138 18-364); assay: alanine scan, flow cytometry
human CD33 V267A = human CD33 V267A (human, UniProt P20138 18-364); assay: alanine scan, flow cytometry
human CD33 V221A = human CD33 V221A (human, UniProt P20138 18-364); assay: alanine scan, flow cytometry
human CD33 G207A = human CD33 G207A (human, UniProt P20138 18-364); assay: alanine scan, flow cytometry
human CD33 N237A = human CD33 N237A (human, UniProt P20138 18-364); assay: alanine scan, flow cytometry
human CD33 V214A = human CD33 V214A (human, UniProt P20138 18-364); assay: alanine scan, flow cytometry
human CD33 H259A = human CD33 H259A (human, UniProt P20138 18-364); assay: alanine scan, flow cytometry
human CD33 G263A = human CD33 G263A (human, UniProt P20138 18-364); assay: alanine scan, flow cytometry
human CD33 I199A = human CD33 I199A (human, UniProt P20138 18-364); assay: alanine scan, flow cytometry
human CD33 I198A = target: T1, human CD33 I198A (human, UniProt P20138 18-364); assay: alanine scan, flow cytometry
T1 construct: the leading token is not explained

human CD33 A265S = human CD33 A265S (human, UniProt P20138 18-364); assay: alanine scan, flow cytometry
human CD33 T240A = human CD33 T240A (human, UniProt P20138 18-364); assay: alanine scan, flow cytometry
human CD33 M120I = human CD33 M120I (human, UniProt P20138 18-364); assay: flow cytometry, transfected cells, IgG;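 further: CD33 point mutants transiently expressed in HEK293-T cells, antibody binding read by fluorescence, background subtracted and normalized to wild-type CD33 as 100%, duplicates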
Experimental: (§1) An alanine scan on human CD33 was performed to the determine the residues on CD33 that are involved in binding to the antibodies investigated. […] Briefly, a mutation library of CD33 was created by high-throughput, site-directed mutagenesis. Each residue was individually mutated to alanine, with alanine codons mutated to serine. The mutant library was arrayed in 384-well microplates and transiently transfected into HEK293-T. Following transfection, cells were incubated with the indicated antibodies (IgG or Fab) at concentrations pre-determined using an independent immunofluorescence titration curve on wild type CD33. […] Binding of each antibody to each mutant clone was determined in duplicates. For each point, background fluorescence was subtracted from the raw data, which were then normalized to antibody reactivity with wild type CD33.
(§2) Antibodies were screened for binding to the human CD33 variants in IgG format. […] For each mutation, background fluorescence was subtracted from the raw data, which were then normalized to antibody reactivity with wild-type CD33.

human CD33 D51K = human CD33 D51K (human, UniProt P20138 18-364); assay: flow cytometry, transfected cells, IgG;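 further: CD33 point mutants transiently expressed in HEK293-T cells, antibody binding read by fluorescence, background subtracted and normalized to wild-type CD33 as 100%, duplicates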
Experimental: as §1, §2

human CD33 L134F = human CD33 L134F (human, UniProt P20138 18-364); assay: flow cytometry, transfected cells, IgG;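 further: CD33 point mutants transiently expressed in HEK293-T cells, antibody binding read by fluorescence, background subtracted and normalized to wild-type CD33 as 100%, duplicates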
Experimental: as §1, §2

human CD33 Y127E = human CD33 Y127E (human, UniProt P20138 18-364); assay: flow cytometry, transfected cells, IgG;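 further: CD33 point mutants transiently expressed in HEK293-T cells, antibody binding read by fluorescence, background subtracted and normalized to wild-type CD33 as 100%, duplicates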
Experimental: as §1, §2

human CD33 L134M = human CD33 L134M (human, UniProt P20138 18-364); assay: flow cytometry, transfected cells, IgG
Experimental: as §1, §2

human CD33 S131Q = human CD33 S131Q (human, UniProt P20138 18-364); assay: flow cytometry, transfected cells, IgG
Experimental: as §1, §2

human CD33 Y129S = human CD33 Y129S (human, UniProt P20138 18-364); assay: flow cytometry, transfected cells, IgG
Experimental: as §1, §2

human CD33 K52L = human CD33 K52L (human, UniProt P20138 18-364); assay: flow cytometry, transfected cells, IgG
Experimental: as §1, §2

human CD33 P132T = human CD33 P132T (human, UniProt P20138 18-364); assay: flow cytometry, transfected cells, IgG
Experimental: as §1, §2

human CD33 S131D = human CD33 S131D (human, UniProt P20138 18-364); assay: flow cytometry, transfected cells, IgG
Experimental: as §1, §2

human CD33 K52D = human CD33 K52D (human, UniProt P20138 18-364); assay: flow cytometry, transfected cells, IgG
Experimental: as §1, §2

[1] = target: human CD33 extracellular region F21L (human, UniProt P20138 22-259); assay: BLI Octet, IgG captured on AHC, CD33 analyte;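 further: CD33 variants and wild type run as analyte at 5, 50 and 500 nM, 700 s association then 1200 s dissociation, buffer-only reference subtracted, global 1:1 fit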
Chain of human CD33 extracellular region F21L (P20138 other isoform, or with tags, fused parts or gaps F21L F21L): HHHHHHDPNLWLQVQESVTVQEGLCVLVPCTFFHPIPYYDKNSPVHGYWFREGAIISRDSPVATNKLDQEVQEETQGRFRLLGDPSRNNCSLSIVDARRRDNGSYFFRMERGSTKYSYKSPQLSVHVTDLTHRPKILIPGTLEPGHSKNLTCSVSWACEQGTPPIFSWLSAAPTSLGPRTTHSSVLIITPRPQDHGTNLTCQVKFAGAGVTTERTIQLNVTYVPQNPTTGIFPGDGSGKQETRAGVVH
Experimental: Human CD33 wt and variants, were used as analyte at 3 different concentrations (500, 50 and 5 nM). Association of the analyte to the antibodies was monitored for 700 s and dissociation of the analyte from the antibodies was monitored for 1200 s. Reference subtraction was performed against buffer only wells. AHC tips were regenerated using 10 mM Glycine-HCl pH 1.7. Data were analyzed with Octet Data Analysis software HT 12.0. Data were fitted to a 1:1 binding model. Kinetic rates ka and kd and response signal were globally fitted.

Chain of human CD33 V267A (P20138 18-364 V267A limits assumed): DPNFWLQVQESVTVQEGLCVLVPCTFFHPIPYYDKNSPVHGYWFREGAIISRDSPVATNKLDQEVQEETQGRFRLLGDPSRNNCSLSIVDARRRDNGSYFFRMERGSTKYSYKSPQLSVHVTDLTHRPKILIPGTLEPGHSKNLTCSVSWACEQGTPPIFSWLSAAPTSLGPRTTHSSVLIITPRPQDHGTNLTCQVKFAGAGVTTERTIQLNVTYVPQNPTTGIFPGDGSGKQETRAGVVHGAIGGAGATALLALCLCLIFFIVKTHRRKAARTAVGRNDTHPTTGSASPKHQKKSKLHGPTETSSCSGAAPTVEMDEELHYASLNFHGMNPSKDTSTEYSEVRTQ
Chain of human CD33 Q228A (P20138 18-364 Q228A limits assumed): as the sequence (P20138 18-364 V267A limits assumed) above, with Q211A, A250V counted along it
Chain of human CD33 Y233A (P20138 18-364 Y233A limits assumed): as the sequence (P20138 18-364 V267A limits assumed) above, with Y216A, A250V counted along it
Chain of human CD33 V196A (P20138 18-364 V196A limits assumed): as the sequence (P20138 18-364 V267A limits assumed) above, with V179A, A250V counted along it
Chain of human CD33 S131Q (P20138 18-364 S131Q limits assumed): as the sequence (P20138 18-364 V267A limits assumed) above, with S114Q, A250V counted along it
Chain of human CD33 Y129S (P20138 18-364 Y129S limits assumed): as the sequence (P20138 18-364 V267A limits assumed) above, with Y112S, A250V counted along it
Chain of human CD33 K250A (P20138 18-364 K250A limits assumed): as the sequence (P20138 18-364 V267A limits assumed) above, with K233A, A250V counted along it
Chain of human CD33 M120I (P20138 18-364 M120I limits assumed): as the sequence (P20138 18-364 V267A limits assumed) above, with M103I, A250V counted along it
Chain of human CD33 P235A (P20138 18-364 P235A limits assumed): as the sequence (P20138 18-364 V267A limits assumed) above, with P218A, A250V counted along it
Chain of human CD33 G207A (P20138 18-364 G207A limits assumed): as the sequence (P20138 18-364 V267A limits assumed) above, with G190A, A250V counted along it
Chain of human CD33 G263A (P20138 18-364 G263A limits assumed): as the sequence (P20138 18-364 V267A limits assumed) above, with G246A, A250V counted along it
Chain of human CD33 S131D (P20138 18-364 S131D limits assumed): as the sequence (P20138 18-364 V267A limits assumed) above, with S114D, A250V counted along it
Chain of human CD33 A255S (P20138 18-364 A255S limits assumed): as the sequence (P20138 18-364 V267A limits assumed) above, with A238S, A250V counted along it

Row | Binder | Mean % WT Binding (human CD33 Q236A) [% WT binding] | Mean % WT Binding (human CD33 T239A) [% WT binding] | Mean % WT Binding (human CD33 K250A) [% WT binding] | Mean % WT Binding (human CD33 A255S) [% WT binding] | Mean % WT Binding (human CD33 G264A) [% WT binding] | Mean % WT Binding (human CD33 T223A) [% WT binding] | Mean % WT Binding (human CD33 L210A) [% WT binding] | Mean % WT Binding (human CD33 I262A) [% WT binding] | Mean % WT Binding (human CD33 Y233A) [% WT binding] | Mean % WT Binding (human CD33 P235A) [% WT binding] | Mean % WT Binding (human CD33 N209A) [% WT binding] | Mean % WT Binding (human CD33 I227A) [% WT binding] | Mean % WT Binding (human CD33 T232A) [% WT binding] | Mean % WT Binding (human CD33 Q228A) [% WT binding] | Mean % WT Binding (human CD33 A217S) [% WT binding] | Mean % WT Binding (human CD33 V196A) [% WT binding] | Mean % WT Binding (human CD33 T222A) [% WT binding] | Mean % WT Binding (human CD33 V267A) [% WT binding] | Mean % WT Binding (human CD33 V221A) [% WT binding] | Mean % WT Binding (human CD33 G207A) [% WT binding] | further results
1 | B1 | 100 | 107 | 85.7 | 88.3 | 94.4 | 115 | 78.2 | 97.5 | 89.5 | 102 | 88.1 | 105 | 81.5 | 129 | 121 | 84.5 | 111 | 95.2 | 116 | 109 | Mean % WT Binding (human CD33 N237A): 91.8 % WT binding; Mean % WT Binding (human CD33 V214A): 127 % WT binding; Mean % WT Binding (human CD33 H259A): 94.5 % WT binding; Mean % WT Binding (human CD33 G263A): 104 % WT binding; Mean % WT Binding (human CD33 I199A): 132 % WT binding; Mean % WT Binding (human CD33 I198A): 84.7 % WT binding; Mean % WT Binding (human CD33 A265S): 99.7 % WT binding; Mean % WT Binding (human CD33 T240A): 96.9 % WT binding
2 | B2 |  |  |  |  |  |  |  |  |  |  |  |  |  |  |  |  |  |  |  |  | Mean % WT Binding (human CD33 M120I): 93%; Mean % WT Binding (human CD33 D51K): 4.2%; Mean % WT Binding (human CD33 L134F): 102%; Mean % WT Binding (human CD33 Y127E): 93.9%; Mean % WT Binding (human CD33 L134M): 86.1%; Mean % WT Binding (human CD33 S131Q): 80.6%; Mean % WT Binding (human CD33 Y129S): 94.7%; Mean % WT Binding (human CD33 K52L): 2.2%; Mean % WT Binding (human CD33 P132T): 93.1%; Mean % WT Binding (human CD33 S131D): 102%; Mean % WT Binding (human CD33 K52D): 3.2%
3 | B3 |  |  |  |  |  |  |  |  |  |  |  |  |  |  |  |  |  |  |  |  | % WT binding [1]: 109%
4 | B4 |  |  |  |  |  |  |  |  |  |  |  |  |  |  |  |  |  |  |  |  | % WT binding [1]: 0%
5 | B5 | 103 | 87.3 | 98 | 96.8 | 103 | 110 | 96.9 | 99.4 | 103 | 84.3 | 101 | 88.1 | 79.6 | 100 | 91 | 116 | 92.2 | 101 | 94.6 | 98.6 | Mean % WT Binding (human CD33 N237A): 101 % WT binding; Mean % WT Binding (human CD33 V214A): 94.4 % WT binding; Mean % WT Binding (human CD33 H259A): 86.4 % WT binding; Mean % WT Binding (human CD33 G263A): 94.3 % WT binding; Mean % WT Binding (human CD33 I199A): 106 % WT binding; Mean % WT Binding (human CD33 I198A): 89.3 % WT binding; Mean % WT Binding (human CD33 A265S): 107 % WT binding; Mean % WT Binding (human CD33 T240A): 97 % WT binding
6 | B6 |  |  |  |  |  |  |  |  |  |  |  |  |  |  |  |  |  |  |  |  | Mean % WT Binding (human CD33 M120I): 102%; Mean % WT Binding (human CD33 D51K): 77.7%; Mean % WT Binding (human CD33 L134F): 90.7%; Mean % WT Binding (human CD33 Y127E): 102%; Mean % WT Binding (human CD33 L134M): 99.5%; Mean % WT Binding (human CD33 S131Q): 18.9%; Mean % WT Binding (human CD33 Y129S): 99.6%; Mean % WT Binding (human CD33 K52L): 99.4%; Mean % WT Binding (human CD33 P132T): 11.7%; Mean % WT Binding (human CD33 S131D): 88.9%; Mean % WT Binding (human CD33 K52D): 126%
